{"source": "patent US20060234293A1", "about": "“Polypeptide methods and means” (priority 2002, published 2006)", "molecular_target": "T1, Biotinylated BRC Repeat 4 peptide (Bio-BRC4) (Homo sapiens, UniProt P51587)", "T1 construct": "host or cells: chemical synthesis for the peptide; E. coli BL21 Codon Plus for RAD51 F86E", "T1 sequence (P51587 1517-1551 limits assumed)": "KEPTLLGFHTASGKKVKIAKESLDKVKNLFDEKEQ", "T1 sequence (Q06609 whole entry F86E partner)": "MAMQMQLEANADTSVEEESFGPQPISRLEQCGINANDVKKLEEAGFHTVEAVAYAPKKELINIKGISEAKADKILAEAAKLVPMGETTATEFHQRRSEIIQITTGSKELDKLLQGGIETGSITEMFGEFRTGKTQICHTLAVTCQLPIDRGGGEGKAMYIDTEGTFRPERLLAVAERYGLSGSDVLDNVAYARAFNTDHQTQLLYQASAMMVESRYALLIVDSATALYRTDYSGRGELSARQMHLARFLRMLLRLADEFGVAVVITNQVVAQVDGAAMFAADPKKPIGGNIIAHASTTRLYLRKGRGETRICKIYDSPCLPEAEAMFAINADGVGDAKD", "assay": "SPR binding assay of RAD51 F86E on BRC4 coupled-chip", "conditions": "5 μM in HBSEP, 60 seconds contact time; FIG. 9(a)", "description": "Measurements were performed on the BIACORE X biosensor (BIACORE AB, Uppsala, Sweden). A continuous flow of de-gassed and 0.22 μm filtered HBSEP running buffer was employed at a constant temperature of 25° C.\nFlow cells 1 and 2 of a pre-coated streptavidin Sensor chip SA were conditioned with three sequential 20 μl injections of 1 M NaCl, 50 mM NaOH at a flow rate of 20 μl/min.\nBiotinylated BRC Repeat 4 peptide (Bio-BRC4) was immobilized to a level of 200 RU by affinity capture onto Flow cell 2 only. This was achieved by two 20 μl injections of 10 nM Bio-BRC4 in HBS-EP at a flow rate of 20 μl/min. Flow cell 1 represented a reference surface to correct for any refractive index variations and thus was not derivated. Flow cells 1 and 2 were both subsequently treated with three successive injections of 40 μl regeneration solution (10 mM Glycine pH 2.5) at a flow rate of 40 μl/min to ensure baseline stabilization.\nThe […] mutant RAD51 Phe86Glu (F86E) or Ala89Glu (A89E) protein in solution can then be run over the BRC repeat coupled-chip in a Biacore instrument (Biacore AB, Uppsala, Sweden) or other suitable measuring device for surface-plasmon resonance. Reference corrected data was analysed using BIAevalution software (3.2V) and sensorgrams plotted. […]"}
{"molecule": "RAD51 F86E: non-oligomerising mutant RAD51 with Phe86 replaced by glutamic acid (protein, UniProt Q06609 2-339, looked up, variant F86E) DNA repair protein RAD51 …: AMQMQLEANADTSVEEESFGPQPISRLEQCGINANDVKKLEEAGFHTVEAVAYAPKKELINIKGISEAKADKILAEAAKLVPMGETTATEFHQRRSEIIQITTGSKELDKLLQGGIETGSITEMFGEFRTGKTQICHTLAVTCQLPIDRGGGEGKAMYIDTEGTFRPERLLAVAERYGLSGSDVLDNVAYARAFNTDHQTQLLYQASAMMVESRYALLIVDSATALYRTDYSGRGELSARQMHLARFLRMLLRLADEFGVAVVITNQVVAQVDGAAMFAADPKKPIGGNIIAHASTTRLYLRKGRGETRICKIYDSPCLPEAEAMFAINADGVGDAKD", "values": [{"measurement": "binding to the BRC4 coupled-chip", "value": "binding can easily be detected"}]}
